Experimental data reported in paper PMC3466378 (Journal of immunology (Baltimore, Md. : 1950), 2012).
Ends that are not written are not given here.

Columns and labels:
[1] = target: HLA-DR1 (Homo sapiens, UniProt P01903+P01911, A100R/D57E/F55L/F60I/F76Y/I96L/L162R/M171V/P40L/Q125E/R42F/V115G/Y59C); assay: biochemical; assay type: binding
[2] = target: Soluble recombinant HLA-DR1 (HLA DRB1*0101) (human); assay: fluorescence polarisation
[3] = target: Soluble recombinant HLA-DR1 (HLA DRB1*0101) (human); assay: ELISA

| Compound | IC50 [1] [nM] | IC50 [2] [nM] | t1/2in [3] [h] | t1/2DM [3] [h] |
| --- | --- | --- | --- | --- |
| CC[C@H](C)[C@H](NC(=O)[C@H](CCCNC(=N)N)NC(=O)[C@H](CC(=O)O)NC(=O)[C@@H](NC(=O)[C@H](CCCCN)NC(=O)[C@@H](NC(=O)[C@H](CO)NC(=O)[C@H](CCC(=O)O)NC(=O)[C@@H](NC(=O)[C@H](Cc1ccc(O)cc1)NC(=O)[C@H](CCSC)NC(=O)[C@H](Cc1ccccc1)NC(=O)[C@H](CO)NC(=O)[C@H](Cc1ccccc1)NC(=O)[C@@H](N)CCCCN)[C@@H](C)CC)[C@@H](C)CC)C(C)C)C(=O)O [A20R (214–228)] | 192 | – | – | – |
| CC[C@H](C)[C@H](NC(=O)[C@H](Cc1ccccc1)NC(=O)[C@H](CC(C)C)NC(=O)[C@H](CC(C)C)NC(=O)[C@H](CO)NC(=O)[C@@H](NC(=O)[C@H](C)N)C(C)C)C(=O)N[C@@H](CCC(N)=O)C(=O)NCC(=O)N[C@@H](Cc1ccc(O)cc1)C(=O)N[C@@H](CO)C(=O)N[C@H](C(=O)N[C@@H](Cc1ccc(O)cc1)C(=O)N[C@@H](CCC(=O)O)C(=O)N[C@@H](CC(N)=O)C(=O)O)[C@@H](C)CC [A28Ls (15–29)] | 212 | – | – | – |
| CC[C@H](C)[C@H](NC(=O)CNC(=O)[C@H](CO)NC(=O)[C@H](CCC(N)=O)NC(=O)[C@H](CC(N)=O)NC(=O)[C@@H](NC(=O)[C@H](Cc1ccccc1)NC(=O)[C@@H]1CCCN1C(=O)[C@@H](N)CCC(=O)O)C(C)C)C(=O)N[C@@H](CCC(=O)O)C(=O)N[C@H](C(=O)N[C@@H](CC(C)C)C(=O)N[C@@H](CC(C)C)C(=O)O)[C@@H](C)CC [D11L (386–398)] | 106 | – | – | – |
| CC[C@H](C)[C@H](NC(=O)[C@H](CO)NC(=O)[C@H](CC(N)=O)NC(=O)[C@H](Cc1ccccc1)NC(=O)[C@@H](NC(=O)[C@@H](N)CC(C)C)C(C)C)C(=O)N[C@@H](CO)C(=O)N[C@@H](C)C(=O)N[C@@H](CCCNC(=N)N)C(=O)N[C@@H](C)C(=O)N[C@@H](CC(C)C)C(=O)N[C@@H](CCCCN)C(=O)N[C@@H](C)C(=O)N[C@@H](Cc1ccc(O)cc1)C(=O)N[C@@H](Cc1ccccc1)C(=O)O [I1L (8–22)] | 15 | – | – | – |
| CC[C@H](C)[C@H](NC(=O)[C@H](C)NC(=O)[C@H](CC(C)C)NC(=O)[C@H](CO)NC(=O)[C@H](CC(N)=O)NC(=O)[C@H](CC(C)C)NC(=O)[C@H](Cc1ccccc1)NC(=O)[C@H](CCCNC(=N)N)NC(=O)[C@H](CCSC)NC(=O)[C@H](CC(=O)O)NC(=O)[C@@H](N)Cc1ccccc1)C(=O)N[C@@H](Cc1c[nH]cn1)C(=O)N[C@@H](CCC(=O)O)C(=O)O [I7L (193–205)] | 150 | – | – | – |
| CC[C@H](C)[C@H](NC(=O)[C@@H]1CCCN1C(=O)[C@H](CO)NC(=O)CNC(=O)[C@H](CC(=O)O)NC(=O)[C@H](CC(C)C)NC(=O)[C@@H](NC(=O)[C@H](CCCCN)NC(=O)[C@H](Cc1ccccc1)NC(=O)CNC(=O)[C@H](CC(C)C)NC(=O)[C@@H](N)CO)C(C)C)C(=O)N[C@@H](CO)C(=O)N[C@@H](CC(C)C)C(=O)N[C@@H](CCCNC(=N)N)C(=O)O [I8R (243–257)] | 17 | – | – | – |
| A28Ls (15–29) (peptide) | – | 212 | 213 | – |
| A48Rs (41–55) (peptide) | – | 44 | 136 | 115 |
| D5R (315–329) (peptide) | – | – | 276 | – |
| D6R (156–170) (peptide) | – | 4 | 997 | 219 |
| F1L(202–214) (peptide) | – | – | 413 | 117 |
| GRYLVLKAVKVSD [F17R(19–31)] | 37 | – | – | – |
| HPDYAILAARIAVSN [I4L (71–85)] | 62 | – | – | – |
| I1L (8–22) (peptide) | – | 15 | 155 | – |
| I4L (71–85) (peptide) | – | – | 278 | – |
| L1R (191–205) (peptide) | – | 7360 | – | – |
| TTQSMNIMESIPANT [A48Rs (41–55)] | 44 | – | – | – |
